# Columns and labels:
# purified protein [1] = substrate: OC[C@H]1O[C@@H](O[C@H]2[C@H](O)[C@@H](CO)OC(O)[C@@H]2O)[C@H](O)[C@@H](O)[C@@H]1O; test: purified protein; settings: 60.0 °C
# purified protein [2] = substrate: O=[N+]([O-])c1ccc(O[C@@H]2O[C@H](CO)[C@@H](O)[C@H](O)[C@H]2O)cc1; test: purified protein; settings: 60.0 °C
protein,measurement,setting,value
TxGH116 β-glucosidase (Thermoanaerobacterium xylanolyticum LX-11) (protein) LTGCSEKININEDKISHKIDIPDSAWTIGIGEKFKNAGHPNVKYPMIDDSYVQGAPLGGFGAGTIGRTYNGGFSRWHLEIGKNKYTTVYANQFSVFQKVEGNKDGVAQVLYAGEPENGYLSSWKWDYPKESGMYYALYPNSWYTYTNKDLPVQLAVKQFSPIIPYNYKETSYPVAVFKWTAYNPTNKNVDVSIMFTWQNMIGFFGKQVNVNSGNFNKIIKDKSKDSEIVAAVMGNISNDNEEWNGEYSIGVKKVPGVDISYKAKFVTTGDGSDLWHEFSKNGILDNKDDETPTKQDGIGSAIAVNFKLQPGQTIEVPFALSWDLPIMKFGGGDKWYKMYTKYFGKNGKNSFAILKEALNNYQKWEKMIDDWQKPILSNKSKPDWYKTALFNELYYLADGGTAWENGKVGEKDKRTNNMFGLLECFDYNYYETLDVRFYGSFPLVMLWPDIEKQVMRQFADTINVQDSSEFKVGSNGAMAVKKVQGMIPHDLGSSYALPWIKINAYDWQNPNIWKDLNSKYVLLVYRDYVLTGKTDKEFLKYTWKSVKTALDKLKEMDKDNDGIPDNEGIPDQTYDTWSMKGTSAYCGSLWLAALKAAQEIGKVLKDNEAYIKYNEWYKIAQQNFEKELWNGEYYNFDTESDHKDSIMADQLAGQWYADILRLGDILPKDHVQKALKKIYEFNVMKFENGKMGAVNGMRPDGIVDESDIQAQEVWTGVTYALASFMKYRGMTEEAYNTAYGVYKMTYDKSGKGYWFRTPEAWTKDGNYRASMYMRPLSIWSMEVNYNEV,Km,purified protein [1],270 ± 18 µM
same,kcat,purified protein [1],41.4 ± 0.7 s⁻¹
same,kcat/Km,purified protein [1],153000 M⁻¹ s⁻¹
same,Km,purified protein [2],180 ± 8 µM
same,kcat,purified protein [2],49 ± 0.8 s⁻¹
same,kcat/Km,purified protein [2],272000 M⁻¹ s⁻¹

# Reference: article PMC4949581
